Columns and labels:
[1] = SPR membrane binding to POPC/POPS/PI(3)P vesicles; details: POPC/POPS/PI(3)P (77:20:3)
From the text: It has been generally thought that Smad2 and Smad3 are targeted to the activated TGF-β signaling complex by direct interaction with TβRI ([1], [2]) or via SARA ([7]). However, it has been shown that many cytosolic proteins that are targeted to membrane proteins or membrane-anchored signaling complexes have affinity for membrane lipids ([14]), phosphoinositides (PtdInsPs) in particular, and that their membrane recruitment is mediated by coincident lipid–protein and protein–protein interactions ([15], [16]). […] We thus measured the binding of bacterially expressed Smad2 to large unilamellar vesicles (LUVs) containing various lipids by surface plasmon resonance (SPR) analysis ([19], [20]). Lipid selectivity determined by SPR analysis is typically reported as the relative resonance unit (RU) values for different lipids at a given protein concentration ([21], [22]). […] We thus estimated RUmax for different lipid species by employing the highest protein concentration experimentally feasible (e.g., 1 μM) and determined RU/RUmax for different lipids at the protein concentration that allows robust comparison (e.g., 100 nM). Once the lipid selectivity has been determined by this semiquantitative approach, we then rigorously determined and compared Kd values for selected lipids for more accurate quantitative determination of lipid selectivity. […]

[2] = SPR membrane binding to POPC/POPS/PI(3,4)P2 vesicles; details: POPC/POPS/PI(3,4)P2 (77:20:3), 1 μM Smad2
Description: Figure 1 Membrane-binding properties of Smad2 FL protein and MH2 domain determined by SPR analysis.A, PtdInsP selectivity of Smad2-FL determined using POPC/POPS/PtdInsP (77:20:3 in mole ratio) LUVs coated on the L1 sensor chip. The protein concentration was 100 nM. PIP3 indicates PI(3,4,5)P3. B, determination of Kd for binding of Smad2 FL to different LUVs. The protein concentration was varied from 0 to 500 nM. C, PI(4,5)P2 concentration dependence of membrane binding of Smad2-FL determined using POPC/POPS/PI(4,5)P2 (77-x:20:x, x = 0–5 mol%) LUVs. The protein concentration was 100 nM. D, PtdInsP selectivity of the Smad2 MH2 domain determined using POPC/POPS/PtdInsP (77:20:3 in mole ratio) LUVs. […] RUmax values determined for different vesicles at 1 μM Smad2 were: 280 ± 20 for POPC/POPS/PI(4,5)P2 (77:20:3), 370 ± 10 for POPC/POPS/PI(3,4)P2 (77:20:3), 400 ± 15 for POPC/POPS/PI(3,4,5)P3 (or PIP3) (77:20:3), 400 ± 20 for POPC/POPS/PI(3)P (77:20:3), and 380 ± 20 for POPC/POPS (80:20). […]
All SPR measurements were performed at 23 °C in 20 mM Tris, pH 7.4, containing 0.16 M NaCl using a lipid-coated L1 chip in the BIACORE X-100 system (GE Healthcare) as described previously ([19], [38]). […] Sensorgrams were collected for both membrane association and dissociation but the only the association phases were further analyzed because the dissociation phases were often too slow for analysis. […]

B1: Smad2 WT: bacterially expressed full-length Smad2 wild-type (protein)
chain: MSSILPFTPPVVKRLLGWKKSAGGSGGAGGGEQNGQEEKWCEKAVKSLVKKLKKTGRLDELEKAITTQNCNTKCVTIPSTCSEIWGLSTANTVDQWDTTGLYSFSEQTRSLDGRLQVSHRKGLPHVIYCRLWRWPDLHSHHELKAIENCEYAFNLKKDEVCVNPYHYQRVETPVLPPVLVPRHTEILTELPPLDDYTHSIPENTNFPAGIEPQSNYIPETPPPGYISEDGETSDQQLNQSMDTGSPAELSPTTLSPVNHSLDLQPVTYSEPAFWCSIAYYELNQRVGETFHASQPSLTVDGFTDPSNSERFCLGLLSNVNRNATVEMTRRHIGRGVRLYYIGGEVFAECLSDSAIFVQSPNCNQRYGWHPATVCKIPPGCNLKIFNNQEFAALLAQSVNQGFEAVYQLTRMCTIRMSFVKGWGAEYRRQTVTSTPCWIELHLNGPLQWLDKVLTQMGSPSVRCSSMS
modifications: left off: His6, N-terminal, state not stated
notes: bacterially expressed full-length Smad2 wild-type
With B1 as the molecule, how does the RUmax ([1]; 1 μM Smad2) read?
The RUmax was 400 ± 20.

And the Kd ([1]; SPR, L1 chip, 23 °C, 20 mM Tris, pH 7.4, 0.16 M NaCl, average ±S.D., n = 3, read-out: Kd for lipid binding, PC/PS/PI(3)P)?
The Kd was 210 ± 34 nM.

What about the RUmax [2] of the same molecule?
The RUmax was 370 ± 10.

Source: article PMC8567202, “Phosphoinositide-binding activity of Smad2 is essential for its function in TGF-β signaling” (The Journal of Biological Chemistry, 2021)
